Laboratory results: the DeepSol protein solubility set

assay: soluble on expression in E. coli; label from the status in PepcDB or PDB records

Sequence	soluble on expression in E. coli
MSYAYLFKYIIIGDTGVGKSCLLLQFTDKRFQPVHDLTIGVEFGARMVTIDGKQIKLQIWDTAGQESFRSITRSYYRGAAGALLVYDITRRDTFNHLTSWLEDARQHSNSNMVIMLIGNKSDLEARREVKREEGEAFAREHGLVFMETSAKTAANVEEAFIDTAKEIYRKIQEGVFDINNEANGIKLGPQHSPSSPNSPGGNATGGLGGGSGCC	not soluble
MSYFGGLISTLFERRYQQALSDEVDSRTTCELCEALLSSHGEVSGVTLARNLLDRYAAMTEAEKTALFGFMAHDLEIDPDAVTHTLEAYKNNPGKDTYRAFAAACEPRRQELARRLNQVPGATGQLVQMRKDLLRMMKDHPDLEPVDVDFKHLFSSWFNRGFLVLRPIDWSSPANILEQIIAYEAVHEIDSWDELRRRLQPSDRRCFGFFHPSMADEPLIFVEVALTEGVPSSVQDLLADERDVITAQDADTAVFYSISNCQSGLAGISFGNSLIKQVVADLAKDLPGLTTFVTLSPIPGLNRWLQDADIDALKDADTQALAAHYLLEAKRSDGMPFDPVARFHLGNGALVHAVHAEADVSPNGRKQSNGAMVNYLYDLSQISQNHEKFVGDKIVVASTTVKALSGSVTTSLGTAAAAAALEHHHHHH	soluble
MSYITKQDKVIAEAIEREFQRQNSNIELIASENFVSEAVMEAQGSVLTNKYAEGYPGRRYYGGCEFVDVTESIAIDRAKALFGAEHVNVQPHSGSQANMAVYLVALEMGDTVLGMNLSHGGHLTHGAPVNFSGKFYNFVEYGVDKDTERINYDEVRKLALEHKPKLIVAGASAYSRTIDFKKFKEIADEVNAKLMVDMAHIAGLVAAGLHPNPVEYADFVTTTTHKTLRGPRGGMILCKEEYKKDIDKTIFPGIQGGPLEHVIAAKAVAFGEALENNFKTYQQQVVKNAKVLAEALINEGFRIVSGGTDNHLVAVDVKGSIGLTGKEAEETLDSVGITCNKNTIPFDQEKPFVTSGIRLGTPAATTRGFDEKAFEEVAKIISLALKNSKDEEKLQQAKERVAKLTAEYPLYQ	not soluble
MSYKAYPFFRDILINECIYFASKNKKLVRLNYKSEAYVGVWTEESVAVSFLTSRDIPFDKVVKMDVDRFATYELDELFDEQDHIIMNQTMEEEGHLLNVVAVTQEVMTELDKIRIKEFVQDVAKYDEVYGLTKKGSKQFILISENDSDEKKPHIMPVWSIKNRALKVRDEDFEECDLITIEGSVFGEWLDELRDDHKAVAIDLKTGVVGTIVSAQKLSNELTF	not soluble
MSYKSSKYNLFIERKREVISFNTLRNIIAKCDIETKEILENETFNKLPPDLLNKMISEGIIVNKELNELNIIKLTRMMYYGQLLHYLSIGLTLVMTYSCNLRCPYCYEGDIKSKGGLLTREKIETILTFASAHAQGDKKPTISVSFYGGEPLLNWKGCEYTLQRLEEMKENKEIRDYSAGFVTNGTLINEDIVDAINNYNVYSMQITLDGPKEIHDKRRIKSNGEGTFDQIIENIKLLNRRIANKNFHLALRINVDKTNYKKIPELLDFLKDEGLGGIPISYGIVRGNLPYCSSNCGVYFSGSDLQKYLPYLWKEAYRRGFEVWTRPNLRFIYCGYDNPFGYVIDPELKVYPCWEMVGIEDYQIGEIQKDGTMKITPFYYDAKSRDPTEYDECKNCKLLPVCMGGCAMESIRKNGHPNGPGCDINKYIWKEGLKFYLMKKYPNLFSKETLIENLGRVPNRDEQTKNRIMFNT	not soluble
MSYLVVTIKVILITGMPGSGKSEFAKLLKERGAKVIVMSDVVRKRYSIEAKPGERLMDFAKRLREIYGDGVVARLCVEELGTSNHDLVVFDGVRSLAEVEEFKRLLGDSVYIVAVHSPPKIRYKRMIERLRSDDSKEISELIRRDREELKLGIGEVIAMADYIITNDSNYEEFKRRCEEVTDRVLKNG	not soluble
MSYQPPPNGQMPGYPQQQFNQQPQFQSNGFPPPAAPQKPAQVPGGFPPPHQQPNGQYQNGGLNGNSSHLAQSVNNMSIGARSTPSAQPPNPYQPAGYPGAPPQQLQQVQRQQTPQQFAAVPQSVQAPSATPAGPLQAMQQAPAPTPGIPQMNQGAHLPPQPHQIHQPTPLRPQIPGFPQAGGSPSSFQAGAPTSQNVQGYPGGPSSAPSAYPGAPQVPQAPNSFIPPGTGGFPPGQPTAGSFPPGPQVPGSYPSGPADIPQGPGMPRAFPPGASAPVAPGMPGAFPPGQGGPGMPGSFPPGAPGPGGPGMPGSFAPGAPGPGGPGGYPSGGPGMPGMQGGYPGGPPQQRQQRLDPNMMPSAVQVIDDDSSTRSGIFPTGYPNAELPPLVSTNSFAQDQGNCNPKFMRSTLYTAPQTNDILKASQIPLAVVISPFASLTEYEKEPPVVDLGPQGPIRCQRCKAYICPFMEFQDGGRSFRCPFCHARTSVEDAYFAHLDHTGRRTDIEMRPELCLGAYDLVATKQYCKNGIAPKEPAFIFMIDVSYNAISNGMLPILCQNLEKVLRNLPRESGQLESSMRIGLATFDQAVHFFDISSASPKMLVMSDVQEPFVPMVDGLLLPYNEALPGLRAALAEIPKLFSQSKTTETILQPVVQAGLDALKCADRAGKVILFSTVLPTYDAPGKLKSKNDRSLLGTDKEKNALVPQEDSYTKLGEQCVKSGVTVDLFLFPNAFIDVATIGQLSAVTGGSIFKFQYFSADKDGVRMLNELERHVSKKIAFDCMARVRTSTGIRPITFTGSFYMENSTDLELATLDESKAFITEIKHDDSLKDPASFIQTAVLYTSMTGQRRLRILNLCLPVTADYNQVYRLADPEALTAFMLKQAVQLNRDKGSSEMRESLSSRCAQFLATYREKCSEGAPLGQLILPESLKLMPLYVNSILKNDAISGGSEMTVDDKVWQMELIRGLRTENVMPLIYPRVMPISDLQINDTEEMKDLPKPVRASSEFLENSKAYIIDNGVILFVWVGSACPQTWVQDVFGVGATNQIDTESGTIPEKDNGHSRALRRAIQLLPRGIRERKTFVVVEKSGLEPWMKKFLVEDKAGPANMSYVDYLVDIHRKIRDLIS	not soluble
MSYRQMLIHRCDIYHEAAQAPSAGRFGIPADRLQPVISYPDTPDEQDVPCYFTEKTQQLIQEEPDQTVYHSFLVHFPLSADIRVNDKIIWENHKYILKLPKRIRHHHWEVVAVRDESLLEHHHHHH	soluble
MTAASIDRELVPWSDPEFRNNPYPWYRRLQQDHPVHKLEDGTYLVSRYADVSHFAKLPIMSVEPGWADAGPWAVASDTALGSDPPHHTVLRRQTNKWFTPKLVDGWVRTTRELVGDLLDGVEAGQVIEARRDLAVVPTHVTMARVLQLPEDDADAVMEAMFEAMLMQSAEPADGDVDRAAVAFGYLSARVAEMLEDKRVNPGDGLADSLLDAARAGEITESEAIATILVFYAVGHMAIGYLIASGIELFARRPEVFTAFRNDESARAAIINEMVRMDPPQLSFLRFPTEDVEIGGVLIEAGSPIRFMIGAANRDPEVFDDPDVFDHTRPPAASRNLSFGLGPHSCAGQIISRAEATTVFAVLAERYERIELAEEPTVAHNDFARRYRKLPIVLS	soluble
MTAIRFDHVDVIFGTHTKEALKLLDQGLGRAEILKRTGQVLGVEDACLDVNRGEICVLMGLSGSGKSSLLRCINGLNKVSRGKLLIEHEGSQVDIANCSPATLKAMRTKRIAMVFQKFALMPWLTVAENVGFGLEMQGRPAAERKKLIDEKLELVGLSQWRDKRPDSLSGGMQQRVGLARALAMDGDILLMDEPFSALDPLIRQQLQDELLVLQRQLHKTIVFVSHDLDEALKIGTRIAIMKDGRIIQHGKPEEIVLSPADDYVRTFVAHTNPLNVLCGQSLMRGLDQCIRQNDEICFDQGRDCWIGLSEGDVLKGARQGSNVIDLQRWRQGDPVEKLRREPTLVDVSIRMRDALQIRYQTGHKLVLQEQDRVVGVLGDSELYHALLGKN	not soluble
MTAKKEHLFIVFENLIKIKSECSCEIFSECGISDITVKQIGYLKAIDEHGEVTFSRLAKITKNSKPTITEMVNKFVRMECVYREKCPEDGRIFYIRLTEKGQRIARAEESSLLRVIEKMAESLNEKEIETLIRILGKVR	not soluble
MTAPLIRVSRKRTADPHDALILHTKRAKHGGNPLVFTLYKAAGNDLELNGARVLDLPTQEHGMELADEENPLGFVKDEAVGLVGEVEKNVKKPAEQVSLNGRLLQPVTDGGGAAAGSSDDVVYDYYAIHEKRGNPEVVGNLEQDIEGADFRFAKRDELDLGDEDDSDGPPADDEDDSNDEDNWRNDYPDEESYDEDSDNGDPYGISEPDHWHAGEEAYSDESFHRRLQNMDLNDERYEAFYEGDETDEDAD	soluble
MTAPPPPLVELPPGSMVERWSITKKLGEGGCGAVYLCTDATGKYALKVEGISEAMQVLKMEVLVLGELTKRGSRHFCKIEDKGRYGSFNYVVMTLVGKSLQDLRKGTAQQCLSLACSLSVGIQSLEALEDLHNIGYLHRDVKPGNYTIGRAELNELRKVYILDFGMARKFTDNNGVIRKPRAAAGFRGTVRYAPIACHKNQELGRKDDVEVWLYMQVELTVGRVPWKEITDMNAVGQAKQAIRNTPEKMFVFPCPANELKEIMKMVDSWDYFADPNYADCYRLMKQTLANCGKPEYPYDWEPGMPLNYMVK	not soluble
MTASRPAFLHLSPADTVGIALRALPSGEEALGVTLRADVPLGHKFAVVAMPAGTAVVKYGQVMGVATADIAPGDHVHSHNCAMSDSHSNRADAKGTLHAAPGRQTFQGYLRPDGRVGTRNYIGIMASVNCSSTVCNAIAEAANRTLLPRFPGIDGFAPIVHDQGCGMASAGEGFDALVRVLKGYRDHPNFGGVLIVGLGCEVNQLTLYKRTDWTEERIGIFNIQDVGGSASAVRRALELLEPICAAADQDRRSEQPVSKLVLGMQCGGSDGFSGITANPALGVASDMLVAAGGTSILSETPEIYGAEHLLIARADAETGRRIEGMIDWWRDYAAKNGASLDNNPSPGNKRGGLTTILEKSLGAVAKGGLSPLAGAFAYAEPIRIPGLVYMDSPGYDPVAATGQVASGANLIAFTTGRGSCFGAKPAPSIKLASNSDLARRMPEDMDIDCGVVVEEGVSLEEMGRRIYDLLLDTASGKRSKSEEFGYGDNEFVPWKIGATL	not soluble
MTASSDPHVIFVGSGINSLVSAALLATRGKRVLVLERNDRLGGCIRTEELFPGYHHEVMSSWYPLFVGSPGYAELKPALEQAGLAFLCPDYTTGLVWPDGRGLALKQDLNDAVQRLEALAPGDGAALGAMAARLFGPDAALTFGLLGQNPYGWAMLKLLFGQWRQRGTDGLAAFAADALETFRRWSERTLRSDLARALIAPWVLHSGLGPDDAGSALIGKLTFASVVSGGMPVVKGGGSRLVEALARVIEQHGGTLMTGTPVEQVLTEGQGRRRRATGVAVTGGRRLRAQQAVVCNVTPQQLYGRLLPEMPQPLRERAEGYRYGRGDMQIHFALNAPPAWREAELCKVPLVHLTESLEQVCASVTQANNGLLPSRPTLGIGQPTVADPSRAPAGGWILWIQMQELPTRLKGDAAGEIPVPADGRWNEAVREAFADRVQARLERVMPGLAERIVGRRAYSPADLEVLNCNLVGGDPYSGVCSPDQFFWLRPFAGSQGARAHRTPLANVFHIGASTHPGPGLGAGSGFMVAQHLSPR	not soluble
MTATPLYCAEPARLDTARRLCERFSLPLIKQRPADGYWLELGSERLELLTTGKHGAVYAEFVEGAARHRREQGGGRGQPVAKAVGLKGAKDLPHVADATAGLGRDSFVLATLGCRVTMVERSPVAAALLADALERAQRDETTRDIAARMTLVHANSRNWLAGLTEAQRPDVVFVDPMFPDTDKKSAAAKKDMQAFQQVIGDDMDSAELLAAAIAAARVRVVVKRPRLGAAIAGVKPSAVLDGKSTRFDLYVIKALASGLEHHHHHH	soluble
MTAWLLSLALNLPFLGGPQEYQILVALGCSAPRHVQNGYREMLAHEVLPRLAEKVTTTQVRLTLAPITGRSYTAPARVLETPNPLSTPRFQLEEAKKTFQKEALRTFDELRKRAAAECSRGTEIIGALKAAGERARKPGRILVLAHGFEQSELMNLYDYRLKLEKREVRQGLLQRVKARLGLPNLKDQEVCIAGITAGNDNNANARLTTSIKAFWEELIQASGGRLVGYGTTPRVCPFL	soluble
